Data from patent US20260201008A1, “SECRETIN-DERIVED GLP1R SELECTIVE AGONISTS” (GUBRA A/S, priority 2023, published 2026).
Values after ≈ are worked out from the molar mass of the structure shown. Read-outs that look alike come from different tables or passages of the source. Numbered stars: 1 amine (or outer) side, 2 acyl side, 3 side chain; on linkers, the order of the positions; unused ones are H or OH. Square brackets hold non-standard residues; d marks the D form. Side chains are listed from the residue outwards. Ends that are not written are not given here. Peptide text beside a SMILES is read from it. * marks the point of attachment. C20 diacid = O=C(O)CCCCCCCCCCCCCCCCCCC(=O)*; γGlu = O=C(O)[C@H](CCC(=O)[*:2])N[*:1]; AEEA = NCCOCCOCC(=O)O; Aib = CC(C)(N)C(=O)O

B1: SEQ ID NO: 226 (peptide)
peptide: H[Aib]EGTFTSDLSGLLEGAALQRFIQWLV-NH2
modifications: N-terminus assumed
SMILES: CC[C@H](C)[C@H](NC(=O)[C@H](Cc1ccccc1)NC(=O)[C@H](CCCNC(=N)N)NC(=O)[C@H](CCC(N)=O)NC(=O)[C@H](CC(C)C)NC(=O)[C@H](C)NC(=O)[C@H](C)NC(=O)CNC(=O)[C@H](CCC(=O)O)NC(=O)[C@H](CC(C)C)NC(=O)[C@H](CC(C)C)NC(=O)CNC(=O)[C@H](CO)NC(=O)[C@H](CC(C)C)NC(=O)[C@H](CC(=O)O)NC(=O)[C@H](CO)NC(=O)[C@@H](NC(=O)[C@H](Cc1ccccc1)NC(=O)[C@@H](NC(=O)CNC(=O)[C@H](CCC(=O)O)NC(=O)C(C)(C)NC(=O)[C@@H](N)Cc1c[nH]cn1)[C@@H](C)O)[C@@H](C)O)C(=O)N[C@@H](CCC(N)=O)C(=O)N[C@@H](Cc1c[nH]c2ccccc12)C(=O)N[C@@H](CC(C)C)C(=O)N[C@H](C(N)=O)C(C)C
B2: SEQ ID NO: 228 (peptide)
peptide: H[Aib]EGTFTSDLSWLLEGAALQRFIQWLV-NH2
modifications: N-terminus assumed
SMILES: CC[C@H](C)[C@H](NC(=O)[C@H](Cc1ccccc1)NC(=O)[C@H](CCCNC(=N)N)NC(=O)[C@H](CCC(N)=O)NC(=O)[C@H](CC(C)C)NC(=O)[C@H](C)NC(=O)[C@H](C)NC(=O)CNC(=O)[C@H](CCC(=O)O)NC(=O)[C@H](CC(C)C)NC(=O)[C@H](CC(C)C)NC(=O)[C@H](Cc1c[nH]c2ccccc12)NC(=O)[C@H](CO)NC(=O)[C@H](CC(C)C)NC(=O)[C@H](CC(=O)O)NC(=O)[C@H](CO)NC(=O)[C@@H](NC(=O)[C@H](Cc1ccccc1)NC(=O)[C@@H](NC(=O)CNC(=O)[C@H](CCC(=O)O)NC(=O)C(C)(C)NC(=O)[C@@H](N)Cc1c[nH]cn1)[C@@H](C)O)[C@@H](C)O)C(=O)N[C@@H](CCC(N)=O)C(=O)N[C@@H](Cc1c[nH]c2ccccc12)C(=O)N[C@@H](CC(C)C)C(=O)N[C@H](C(N)=O)C(C)C
B3: SEQ ID NO: 219 (peptide)
peptide: H[Aib]EGTFTSDWSRLLEGAALQRFIQWLV-NH2
modifications: N-terminus assumed
SMILES: CC[C@H](C)[C@H](NC(=O)[C@H](Cc1ccccc1)NC(=O)[C@H](CCCNC(=N)N)NC(=O)[C@H](CCC(N)=O)NC(=O)[C@H](CC(C)C)NC(=O)[C@H](C)NC(=O)[C@H](C)NC(=O)CNC(=O)[C@H](CCC(=O)O)NC(=O)[C@H](CC(C)C)NC(=O)[C@H](CC(C)C)NC(=O)[C@H](CCCNC(=N)N)NC(=O)[C@H](CO)NC(=O)[C@H](Cc1c[nH]c2ccccc12)NC(=O)[C@H](CC(=O)O)NC(=O)[C@H](CO)NC(=O)[C@@H](NC(=O)[C@H](Cc1ccccc1)NC(=O)[C@@H](NC(=O)CNC(=O)[C@H](CCC(=O)O)NC(=O)C(C)(C)NC(=O)[C@@H](N)Cc1c[nH]cn1)[C@@H](C)O)[C@@H](C)O)C(=O)N[C@@H](CCC(N)=O)C(=O)N[C@@H](Cc1c[nH]c2ccccc12)C(=O)N[C@@H](CC(C)C)C(=O)N[C@H](C(N)=O)C(C)C
B4: SEQ ID NO: 229 (peptide)
peptide: H[Aib]EGTFTSDLSYLLEGAALQRFIQWLV-NH2
modifications: N-terminus assumed
SMILES: CC[C@H](C)[C@H](NC(=O)[C@H](Cc1ccccc1)NC(=O)[C@H](CCCNC(=N)N)NC(=O)[C@H](CCC(N)=O)NC(=O)[C@H](CC(C)C)NC(=O)[C@H](C)NC(=O)[C@H](C)NC(=O)CNC(=O)[C@H](CCC(=O)O)NC(=O)[C@H](CC(C)C)NC(=O)[C@H](CC(C)C)NC(=O)[C@H](Cc1ccc(O)cc1)NC(=O)[C@H](CO)NC(=O)[C@H](CC(C)C)NC(=O)[C@H](CC(=O)O)NC(=O)[C@H](CO)NC(=O)[C@@H](NC(=O)[C@H](Cc1ccccc1)NC(=O)[C@@H](NC(=O)CNC(=O)[C@H](CCC(=O)O)NC(=O)C(C)(C)NC(=O)[C@@H](N)Cc1c[nH]cn1)[C@@H](C)O)[C@@H](C)O)C(=O)N[C@@H](CCC(N)=O)C(=O)N[C@@H](Cc1c[nH]c2ccccc12)C(=O)N[C@@H](CC(C)C)C(=O)N[C@H](C(N)=O)C(C)C
B5: SEQ ID NO: 225 (peptide)
peptide: H[Aib]EGTFTSDLSFLLEGAALQRFIQWLV-NH2
modifications: N-terminus assumed
SMILES: CC[C@H](C)[C@H](NC(=O)[C@H](Cc1ccccc1)NC(=O)[C@H](CCCNC(=N)N)NC(=O)[C@H](CCC(N)=O)NC(=O)[C@H](CC(C)C)NC(=O)[C@H](C)NC(=O)[C@H](C)NC(=O)CNC(=O)[C@H](CCC(=O)O)NC(=O)[C@H](CC(C)C)NC(=O)[C@H](CC(C)C)NC(=O)[C@H](Cc1ccccc1)NC(=O)[C@H](CO)NC(=O)[C@H](CC(C)C)NC(=O)[C@H](CC(=O)O)NC(=O)[C@H](CO)NC(=O)[C@@H](NC(=O)[C@H](Cc1ccccc1)NC(=O)[C@@H](NC(=O)CNC(=O)[C@H](CCC(=O)O)NC(=O)C(C)(C)NC(=O)[C@@H](N)Cc1c[nH]cn1)[C@@H](C)O)[C@@H](C)O)C(=O)N[C@@H](CCC(N)=O)C(=O)N[C@@H](Cc1c[nH]c2ccccc12)C(=O)N[C@@H](CC(C)C)C(=O)N[C@H](C(N)=O)C(C)C
B6: SEQ ID NO: 227 (peptide)
peptide: H[Aib]EGTFTSDLSVLLEGAALQRFIQWLV-NH2
modifications: N-terminus assumed
SMILES: CC[C@H](C)[C@H](NC(=O)[C@H](Cc1ccccc1)NC(=O)[C@H](CCCNC(=N)N)NC(=O)[C@H](CCC(N)=O)NC(=O)[C@H](CC(C)C)NC(=O)[C@H](C)NC(=O)[C@H](C)NC(=O)CNC(=O)[C@H](CCC(=O)O)NC(=O)[C@H](CC(C)C)NC(=O)[C@H](CC(C)C)NC(=O)[C@@H](NC(=O)[C@H](CO)NC(=O)[C@H](CC(C)C)NC(=O)[C@H](CC(=O)O)NC(=O)[C@H](CO)NC(=O)[C@@H](NC(=O)[C@H](Cc1ccccc1)NC(=O)[C@@H](NC(=O)CNC(=O)[C@H](CCC(=O)O)NC(=O)C(C)(C)NC(=O)[C@@H](N)Cc1c[nH]cn1)[C@@H](C)O)[C@@H](C)O)C(C)C)C(=O)N[C@@H](CCC(N)=O)C(=O)N[C@@H](Cc1c[nH]c2ccccc12)C(=O)N[C@@H](CC(C)C)C(=O)N[C@H](C(N)=O)C(C)C
B7: SEQ ID NO: 217 (peptide)
peptide: H[Aib]EGTFTSDYSRLLEGAALQRFIQWLV-NH2
modifications: N-terminus assumed
SMILES: CC[C@H](C)[C@H](NC(=O)[C@H](Cc1ccccc1)NC(=O)[C@H](CCCNC(=N)N)NC(=O)[C@H](CCC(N)=O)NC(=O)[C@H](CC(C)C)NC(=O)[C@H](C)NC(=O)[C@H](C)NC(=O)CNC(=O)[C@H](CCC(=O)O)NC(=O)[C@H](CC(C)C)NC(=O)[C@H](CC(C)C)NC(=O)[C@H](CCCNC(=N)N)NC(=O)[C@H](CO)NC(=O)[C@H](Cc1ccc(O)cc1)NC(=O)[C@H](CC(=O)O)NC(=O)[C@H](CO)NC(=O)[C@@H](NC(=O)[C@H](Cc1ccccc1)NC(=O)[C@@H](NC(=O)CNC(=O)[C@H](CCC(=O)O)NC(=O)C(C)(C)NC(=O)[C@@H](N)Cc1c[nH]cn1)[C@@H](C)O)[C@@H](C)O)C(=O)N[C@@H](CCC(N)=O)C(=O)N[C@@H](Cc1c[nH]c2ccccc12)C(=O)N[C@@H](CC(C)C)C(=O)N[C@H](C(N)=O)C(C)C

What was measured:
[1] = Thioflavin T fibril formation assay of purified peptides; type: physicochemical; settings: 267 μM, phosphate buffer pH 7.0, 96 h at 40° C.
Description: Thioflavin T fibril formation assay: Peptides are dissolved as 267 μM in 50 mM phosphate buffer pH 7.0 for 2 h at room temperature on a rocking table. The samples were then divided into three replicates of 80 μl/well and mixed with 2 μl/well Thioflavin T (ThT) to a final concentration of 4 μM ThT in a black 384 well microplate with a clear bottom (Greiner #781096). The plate is inserted in a CLARIOstar Plus microplate reader (BMG Labtech) and fibril formation is measured as an increase in fluorescence emission at 480 nm (excitation at 450 nm) during 96 h at 40° C. with cycles of 5 min rest and 5 min linear shaking at 700 rpm.

[2] = Solubility of purified peptides; type: physicochemical; settings: 100 mM phosphate buffer, target pH 7.0, target approximately 10 mg/mL
Description: Solubility was tested in the following vehicles: 100 mM phosphate buffer facilitating a target pH of 7.0. Samples were directly dissolved in Mini-UniPrep Syringeless Filter 0.45 μm unit (Whatman). For the desired concentration, such as a concentration of approximately 10 mg/mL, 1050 nmol of peptide was dissolved in 400 μL vehicle. Samples were incubated for at least 1 h at room temperature on a rocking table. The pH was measured and adjusted. Samples were left on the rocking table for an additional hour before a second pH measurement and adjustment. Visual inspection was performed and noted before the filter was pushed. The concentration of peptide in the filtrate was determined using CAD (Charged Aerosol Detection), double determination was done for each sample. The measured concentration was reported in μM. Furthermore, the pH of the filtrate was measured and reported. Peptides with a measured concentration within +/−20% of target concentration are considered fully soluble.

[3] = molecular target: T1, human secretin receptor (hSCTR) (human, UniProt P47872 23-440); test: cell-based or functional assay
[4] = molecular target: human GLP-1 receptor (hGLP1R) (human, UniProt P43220 24-463); test: cell-based or functional assay
[5] = molecular target: T1, human secretin receptor (hSCTR); test: cell-based or functional assay; remark: listed apart in the source

T1 sequence (P47872 23-440): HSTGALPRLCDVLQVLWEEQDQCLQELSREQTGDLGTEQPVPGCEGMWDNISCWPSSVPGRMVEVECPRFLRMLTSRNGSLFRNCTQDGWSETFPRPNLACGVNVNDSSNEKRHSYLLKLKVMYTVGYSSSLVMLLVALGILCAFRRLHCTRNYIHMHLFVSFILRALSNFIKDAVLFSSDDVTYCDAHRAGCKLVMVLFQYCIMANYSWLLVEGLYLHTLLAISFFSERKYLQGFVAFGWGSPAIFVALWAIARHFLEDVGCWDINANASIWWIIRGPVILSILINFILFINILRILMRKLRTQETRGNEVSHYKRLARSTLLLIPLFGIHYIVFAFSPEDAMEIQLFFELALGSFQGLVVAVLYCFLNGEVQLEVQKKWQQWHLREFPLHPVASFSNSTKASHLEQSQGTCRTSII

Molecule | Fibril formation [1] | solubility [2] [µg/mL] | pEC50 hSCTR [3] | pEC50 hGLPR1 [4] | pEC50 hSCTR [5]
CC(C)C[C@H](NC(=O)[C@H](Cc1ccccc1)NC(=O)[C@H](CCCNC(=N)N)NC(=O)[C@H](CCC(N)=O)NC(=O)[C@H](CC(C)C)NC(=O)C(C)(C)NC(=O)[C@H](C)NC(=O)[C@H](CCC(=O)O)NC(=O)[C@H](CCC(=O)O)NC(=O)[C@H](CCCCNC(=O)COCCOCCNC(=O)COCCOCCNC(=O)CC[C@H](NC(=O)CCCCCCCCCCCCCCCCCCC(=O)O)C(=O)O)NC(=O)[C@H](CC(C)C)NC(=O)[C@H](CCCNC(=N)N)NC(=O)[C@H](CO)NC(=O)[C@@H](NC(=O)[C@H](CC(=O)O)NC(=O)[C@H](CO)NC(=O)[C@@H](NC(=O)[C@H](Cc1ccccc1)NC(=O)[C@@H](NC(=O)CNC(=O)[C@H](CCC(=O)O)NC(=O)C(C)(C)NC(=O)[C@@H](N)Cc1c[nH]cn1)[C@@H](C)O)[C@@H](C)O)C(C)C)C(=O)N[C@@H](CCC(=O)O)C(=O)N[C@@H](Cc1c[nH]cn1)C(=O)N[C@@H](CC(C)C)C(=O)N[C@H](C(=O)N[C@@H](CCC(=O)O)C(=O)N[C@@H](C)C(=O)N[C@@H](C)C(N)=O)C(C)C [compound 208] (H-H[Aib]EGTFTSDVSRLK([AEEA-AEEA-γGlu-C20 diacid])EEA[Aib]LQRFLEHLVEAA-NH2) | No | 9200 (≈ 2230 µM) | – | – | –
B1 | – | – | 8.3 -log M | 10.5 -log M | –
B2 | – | – | 9.1 -log M | 10.8 -log M | –
B3 | – | – | – | – | 8.2 -log M
B4 | – | – | 8 -log M | 10.8 -log M | –
B5 | – | – | 8.1 -log M | 10.6 -log M | –
B6 | – | – | 8.9 -log M | 10.5 -log M | –
B7 | – | – | – | – | 8.8 -log M
